Assay results from patent publication CN114573698A (dated 2022).
Several values for one entry are separate records, joined by “and”; a condition that tells them apart may be missing. Equal values may be shown once. Blank lines part the entries; values can stand above or below the binder they belong to.

Experiments:
[1] = biological target: T1, 人FcRn(β2M)-His蛋白 (human FcRn-ECD) (human, UniProt P61769 21-119); assay: indirect ELISA, plate-bound human FcRn-ECD (method of Example 2.1)
T1 construct: Bought protein (Acro FCM-H5286); also called 人FcRn-ECD; FcRn-His

[2] = biological target: T1, 人FcRn(β2M)-His蛋白 (human FcRn-ECD); assay: blocking ELISA pH 6.0, human IgG-biotin on plate-bound human FcRn-ECD (method of Example 4)
[3] = biological target: T1, 人FcRn(β2M)-His蛋白 (human FcRn-ECD); assay: blocking ELISA, human IgG on plate-bound human FcRn-ECD
α2-Fc = biological target: T2, α2-Fc (human); assay: Western blot on domain-Fc fusion
T2 construct: no linker is mentioned; also called FcRn功能结构域α2与人Fc融合蛋白; FcRnα2
T2 chain: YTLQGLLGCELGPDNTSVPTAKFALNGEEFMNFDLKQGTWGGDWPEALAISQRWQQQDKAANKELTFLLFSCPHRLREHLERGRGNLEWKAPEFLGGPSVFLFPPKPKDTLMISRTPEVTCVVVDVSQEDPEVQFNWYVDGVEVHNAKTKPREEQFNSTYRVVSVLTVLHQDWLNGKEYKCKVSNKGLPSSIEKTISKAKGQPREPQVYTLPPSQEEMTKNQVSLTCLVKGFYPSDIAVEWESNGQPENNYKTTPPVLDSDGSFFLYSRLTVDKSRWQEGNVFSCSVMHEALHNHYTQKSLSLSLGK

EC50 [1]: 0.00973 µg/mL and 0.06 nM
IC50 [2]: 0.0514 µg/mL and 0.34 nM
B1: SPGA01-ch102 (antibody, human IgG4 S228P, kappa)
heavy: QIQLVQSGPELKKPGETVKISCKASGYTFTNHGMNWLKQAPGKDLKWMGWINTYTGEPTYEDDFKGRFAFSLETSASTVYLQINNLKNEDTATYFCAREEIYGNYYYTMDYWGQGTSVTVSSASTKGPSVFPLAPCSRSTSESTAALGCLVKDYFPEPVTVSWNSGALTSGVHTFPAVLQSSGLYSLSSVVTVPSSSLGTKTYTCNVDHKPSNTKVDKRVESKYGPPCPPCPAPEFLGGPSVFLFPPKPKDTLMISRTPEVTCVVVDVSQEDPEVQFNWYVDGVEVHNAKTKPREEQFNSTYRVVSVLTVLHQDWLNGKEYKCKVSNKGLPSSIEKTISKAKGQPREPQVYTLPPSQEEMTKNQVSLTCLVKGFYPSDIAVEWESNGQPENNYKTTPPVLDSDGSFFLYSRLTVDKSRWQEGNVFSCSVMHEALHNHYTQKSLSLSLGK
light: DIQMTQTTSSLSASLGDRVTISCSASQGISKYLNWYQQKPDGTVKLLIYYTSILHSGVPSRFSGSGSGTDYSLTISNLEPEDIATYFCQQYSKLPPTFGGGTKLEITRTVAAPSVFIFPPSDEQLKSGTASVVCLLNNFYPREAKVQWKVDNALQSGNSQESVTEQDSKDSTYSLSSTLTLSKADYEKHKVYACEVTHQGLSSPVTKSFNRGEC
notes: also called 嵌合抗体SPGA01-ch102; SPGA1-ch102

IC50 [3]: 0.0122 µg/mL and 0.08 nM
EC50 [1]: 0.00976 µg/mL and 0.06 nM
B2: SPGA01-ch102mu (antibody, human IgG4 S228P, kappa)
heavy: QIQLVQSGPELKKPGETVKISCKASGYTFTNHGMNWLKQAPGKDLKWMGWINTYTGEPTYEDDFKGRFAFSLETSASTVYLQINNLKNEDTATYFCAREEIYGNYYYTMDYWGQGTSVTVSSASTKGPSVFPLAPCSRSTSESTAALGCLVKDYFPEPVTVSWNSGALTSGVHTFPAVLQSSGLYSLSSVVTVPSSSLGTKTYTCNVDHKPSNTKVDKRVESKYGPPCPPCPAPEFLGGPSVFLFPPKPKDTLYITREPEVTCVVVDVSQEDPEVQFNWYVDGVEVHNAKTKPREEQFNSTYRVVSVLTVLHQDWLNGKEYKCKVSNKGLPSSIEKTISKAKGQPREPQVYTLPPSQEEMTKNQVSLTCLVKGFYPSDIAVEWESNGQPENNYKTTPPVLDSDGSFFLYSRLTVDKSRWQEGNVFSCSVMHEALKFHYTQKSLSLSLGK
light: B1 light
notes: also called 突变的嵌合抗体SPGA01-ch102mu

binding result (α2-Fc): binds
B3: SPGA01-102 (antibody, V domains shown)
VH: QIQLVQSGPELKKPGETVKISCKASGYTFTNHGMNWLKQAPGKDLKWMGWINTYTGEPTYEDDFKGRFAFSLETSASTVYLQINNLKNEDTATYFCAREEIYGNYYYTMDYWGQGTSVTVSS
VL: DIQMTQTTSSLSASLGDRVTISCSASQGISKYLNWYQQKPDGTVKLLIYYTSILHSGVPSRFSGSGSGTDYSLTISNLEPEDIATYFCQQYSKLPPTFGGGTKLEIT
notes: Mouse monoclonal antibody from a hybridoma, purified on Protein G and detected with anti-mouse IgG; also called 鼠源抗人FcRn单克隆抗体
